Assay [1] has as its target His-tagged ectodomain of human transferrin receptor 1 (hTfR1, R121-F760) (human) (UniProt P02786). The assay can be described thus: SPR; binder on protein A chip, hTfR1 as analyte, without hTf. A general note: SPR reads the build-up and loss of mass on a sensor chip optically.
Assay [2] has the same target. Nature of the assay: SPR; binder on protein A chip, hTfR1 as analyte, in presence of 250 nM hTf.
Assay [3] shares this target. The assay can be described thus: SPR Biacore T200 single-cycle; hTfR1 captured on amine-coupled hTf, binder as analyte; 1:1 model.

The term Kd denotes the concentration at which binding is half-saturated. In general, koff refers to the first-order rate constant of dissociation. In general, kon refers to a measure of how fast the partners come together.

His-tagged ectodomain of human transferrin receptor 1 (hTfR1, R121-F760) (human), sequence (P02786 other isoform, or with tags, fused parts or gaps limits assumed): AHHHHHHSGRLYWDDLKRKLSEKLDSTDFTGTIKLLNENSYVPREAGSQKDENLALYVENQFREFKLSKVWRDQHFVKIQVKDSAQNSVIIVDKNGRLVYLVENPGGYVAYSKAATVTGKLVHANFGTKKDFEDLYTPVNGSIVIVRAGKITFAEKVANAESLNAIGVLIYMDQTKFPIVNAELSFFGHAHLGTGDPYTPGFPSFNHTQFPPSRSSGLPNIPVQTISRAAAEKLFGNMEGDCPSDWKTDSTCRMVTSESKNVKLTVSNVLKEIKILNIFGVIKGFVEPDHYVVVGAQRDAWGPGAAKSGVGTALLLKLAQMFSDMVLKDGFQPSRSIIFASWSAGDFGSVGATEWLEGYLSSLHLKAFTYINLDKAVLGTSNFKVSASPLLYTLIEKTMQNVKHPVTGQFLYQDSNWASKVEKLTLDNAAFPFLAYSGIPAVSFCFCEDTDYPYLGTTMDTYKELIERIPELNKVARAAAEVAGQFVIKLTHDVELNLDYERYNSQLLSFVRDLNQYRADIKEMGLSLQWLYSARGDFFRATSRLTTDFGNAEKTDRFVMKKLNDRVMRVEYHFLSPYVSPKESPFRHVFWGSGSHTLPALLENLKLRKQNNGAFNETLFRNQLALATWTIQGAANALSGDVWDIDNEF

For “Benchmark antibody 128.1 (BA1), full length human IgG1”, the values for the Kd in assay [1], in assay [2] and in assay [3] were 101 pM, 83.4 pM and 19.9 pM, respectively. The values for the koff in assay [1], in assay [2] and in assay [3] were 8.87e-05 s⁻¹, 5.77e-05 s⁻¹ and 5.63e-05 s⁻¹, respectively. For the same substance, the results for the on-rate (kon) in assay [1], in assay [2] and in assay [3] were 882000 M⁻¹ s⁻¹, 692000 M⁻¹ s⁻¹ and 2.82e+06 M⁻¹ s⁻¹, respectively.

The values are drawn from patent US20260116990A1.
